Each block holds one molecule with its values, some of them ahead of it.
How the values were obtained:
[1] = molecular target: GST-Myosin II-1148-1652 (human) (UniProt P35579); assay: ELISA; solid-phase assay: 96-well plates coated with 10 µg GST-GFP, GST-Myosin II-1148-1652 or GST-RAB6A:GTP; 0-40 µg 6xHis-RAB6:GTP or 6xHis-KIF20A-529-665 added; 20 mM Hepes pH 7.5, 100 mM NaCl, 5 mM MgCl2; detection with anti-6xHis antibodies, absorbance at 450 nm
[2] = molecular target: the molecule itself; assay: crystal structure; complex of RAB6A-Q72L-8-195 and KIF20A-603-665 at 10 mg/ml; 100 mM Hepes pH 7.4, 200 mM ammonium sulfate, 24% PEG 8K, 2% isopropanol, 17 °C; 2 Å

- fold lower affinity than RAB6 and Myosin II-1148-1652 have for KIF20A-RBD-529-665 [1]: 5 fold
Molecule: 6xHis-RAB6:GTP (from UniProt P20340 1-208) (natural protein)

B1: KIF20A fragment (603-665) (domain or fragment, UniProt P97329 603-665, looked up)
chain: EQWCSERLDNQKELMEELYEEKLKILKESLTTFYQEQIQERDEKIEELETLLQEAKQQPAAQQ
notes: Parallel right-handed coiled-coil dimer with an inter-helical cysteine bridge; also called KIF20A-RBD; source: E. coli BL21 (DE3), co-expressed with m20, purified (Glutathione Sepharose 4B, rTEV cleavage, Ni-NTA); not shown: GST, N-terminal, cleaved
- stoichiometry N [2]: 2
